Where “and” joins values, the source holds several entries; their conditions need not be identical. Equal entries are not always repeated. Entries after “also recorded” stand apart in the source; their conditions may differ.
How the values were obtained:
[1] = system: Ba/F3-p210-T315I cells; test: Annexin V/7-AAD apoptosis assay in Ba/F3 BCR-ABL1 T315I cells; type: cell-based, mouse; conditions: 72 h, CCmut3 vs EV
Protocol: Assays were run in triplicate (n=3).
For analysis of apoptosis and cell death, cells were pelleted and resuspended in Annexin V-binding buffer (BD Biosciences), stained with anti-Annexin V-APC (BD Biosciences or Life Technologies) and 7-AAD (BD Biosciences or Life Technologies) and analyzed on a BD FACSCanto flow cytometer. In addition to the APC and 7-AAD channels, GFP- and mCherry-positive cells were also recorded.
For analysis of apoptosis and necrotic cell death, cells were pelleted and resuspended in Annexin V-binding buffer (BD Biosciences), stained with anti-Annexin V-APC and 7-AAD (BD Biosciences or Life Technologies) and analyzed on a BD FACSCanto flow cytometer. In addition to the APC and 7-AAD channels, GFP- and mCherry-positive cells were also recorded.

[2] = system: K562 cells; test: Proliferation/viability of transfected K562 cells (trypan blue exclusion); type: cell-based, human; conditions: for proliferation/viability of K562 cells: trypan blue exclusion
Protocol: K562 cells, human leukemia Bcr-Abl^+ cells (gifted from Kojo Elenitoba-Johnson, University of Michigan), were grown in RPMI 1640 media supplemented with 10% FBS, 1% penicillin-streptomycin-glutamine, and 0.1% gentamicin (complete medium). […] Transfections were carried out two days following cell passaging. Then, 2.0×10^6 cells were collected and transfected with 6 μg pf pEGFP, pEGFP-CC^mut3, pmCherry, or pmCherry-CC^mut3 according to the Cell Line Nucleofector Kit V protocol, program T-013, using the Amaxa Nucleofector II (Lonza Group, Basel, Switzerland).
Cell counts were performed using a standard light microscope.
Two days following cell passaging, 2.0×10^6 cells were collected by centrifugation at 500×g for 10 min for each transfection group. Following cell collection, 6 lig DNA (pEGFP, pEGFP-CC, pEGFP-CCmut3, pEGFP-Helix2WT, pEGFP-Helix2mut3, pmCherry, pmCherry-CCmut3, or pmCherry-CappedHelix2mut3) was transfected into cells according to the Cell Line Nucleofector® Kit V protocol (program T-013) using the Amaxa Nucleofector II (Lonza Group, Basel, Switzerland). Following transfection, the DNA/cell mixture was added to 10 mL Complete RPMI 1640 media and allowed to incubate at 37° C. for 24, 48, or 72 h until analysis, depending on the assay.
Forty-eight or 72 h following transfection, 100 μL of treated K562 or Ba/F3-p210 cells was mixed with 100 μL trypan blue solution (Life Technologies). The numbers of viable cells (those impermeable to the trypan blue dye) from four different quadrants in an INCYTO™ C-CHIP™ Neubauer hemacytometer (VWR International, Radnor, Pa., USA) were counted using a standard light microscope. Quadrant counts were then averaged to obtain the number of viable cells per mL. For experiments using the Helix2mut3 construct, counts were performed on one aliquot per transfection (n=3 in replicate). In experiments involving the CappedHelix2mut3 construct, counts were performed three times using separate 100 pt aliquots from one transfection (n=1 in triplicate).

[3] = system: K562 cells; test: 7-AAD and Annexin V staining of protein-treated K562 cells; type: cell-based, human; conditions: proteins 30 μM, imatinib 2.5 μM; 48 and 72 hours after treatment
Protocol: (§1) 0.5 μL of 1 mM 7-AAD (Invitrogen) was added to each sample, followed by a 45 minute incubation on ice. […] Analysis was performed using the FACS Canto-II (BD BioSciences, University of Utah Core Facility) with FACS Diva software. 7-AAD and APC were excited at 488 and 635 nm wavelengths, and emissions were detected at 660 nm. Percentage of apoptosis/necrosis was calculated by the percentage of cells that stained positive for 7-AAD and/or APC. Independent treatments were tested three times (n=3).

[4] = target: T1, isolated CC domain from Bcr-Abl (Homo sapiens, UniProt P11274); test: Mammalian two-hybrid assay of coiled-coil dimerization; type: cell-based; conditions: isolated CC domain from Bcr-Abl
T1 construct: using the isolated CC domain from Bcr-Abl instead of the full-length protein; expressed in transfected cells
T1 sequence (P11274 1-72): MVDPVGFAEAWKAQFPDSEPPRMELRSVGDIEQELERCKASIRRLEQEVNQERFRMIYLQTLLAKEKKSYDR
Protocol: (§2) As mentioned above, the design process of CC^mut3 involved favoring hetero-dimerization with Bcr-Abl while avoiding homo-dimerization with another CC^mut3 molecule. Thus, a mammalian two-hybrid assay was performed to measure the likelihood of each scenario, using the isolated CC domain from Bcr-Abl instead of the full-length protein (for ease of use).

[5] = target: T2, isolated CC domain from Bcr-Abl (Homo sapiens, UniProt P11274, C38A/E48R/K39E/L45D/Q60E/S41R); test: as above; type: cell-based; conditions: CC^mut3 with CC^mut3
T2 construct: using the isolated CC domain from Bcr-Abl instead of the full-length protein; expressed in transfected cells
T2 sequence (P11274 1-72 C38A/K39E/S41R/L45D/E48R/Q60E): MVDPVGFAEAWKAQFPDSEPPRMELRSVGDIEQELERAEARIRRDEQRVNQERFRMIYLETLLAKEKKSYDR
Protocol: as §2

[6] = system: Ba/F3-P210 cells; test: 7-AAD and Annexin V staining of protein-treated Ba/F3-P210 cells; type: cell-based, mouse; conditions: proteins 30 μM, imatinib 2.5 μM; 48 hours post treatment
Protocol: as §1

[7] = system: Ba/F3 cells expressing BCR-ABL1E255V/T315I; test: Colony forming assay of Ba/F3 BCR-ABL1 E255V/T315I cells; type: cell-based, mouse; conditions: for colony formation, in words: CCmut3 gene delivery (transfection; b502 lentiviral infection) vs EV
Protocol: Following selection of transfected cells by cell sorting, viable cells were enumerated and seeded into methylcellulose as described previously (Dixon, A. S., et al. (2011) J. Biol. Chem. 286, 27751-27760). Briefly, mCherry-positive Ba/F3 cells were re-suspended in IMDM with 2% FBS (Stem Cell Technologies) at a concentration of 10,000 cells/mL. Three hundred microliters of this dilution was added to 3 mL of Methocult media (M3434—Ba/F3 p210 wild-type and mutant lines or M3234—Ba/F3 parental, Stem Cell Technologies). Approximately 1100 cells, or 1.2 mL, were seeded per dish in duplicate for each transfection. Colonies were counted 7 days later in an area of […] per dish.
Following selection of transfected cells by cell sorting, methylcellulose colony assays were performed by plating in 0.9% methylcellulose (Stem Cell Technologies; M3234 for Ba/F3 BCR-ABL1 native and mutant lines; M3434 for Ba/F3 parental cells; H4230 for CML patient samples). mCherry-positive Ba/F3 cells (1.1×10^3 cells/plate) or GFP-positive primary CML CD34+ cells (1×10^3 cells/plate) were seeded per dish in duplicate. In the case of CML patient samples, cells were plated in the presence of 1× StemSpan CC100 cytokine cocktail (StemCell Technologies). All cells were plated with or without the indicated TKI in three or more independent experiments. Plates were incubated at 37° C. in a 5% CO2 humidified incubator. Colonies were counted 7-14 days later in an area of 50 μm2 per dish using an inverted microscope.

B1: CCmut3: modified Bcr-Abl coiled-coil domain (residues 1-72) with mutations C38A, K39E, S41R, L45D, E48R, Q60E (protein)
chain: MVDPVGFAEAWKAQFPDSEPPRMELRSVGDIEQELERAEARIRRDEQRVNQERFRMIYLETLLAKEKKSYDR
- apoptosis, in words [1]: increase of apoptosis
- increase in apoptosis [1]: 6-8 fold and > 5 fold
- apoptosis, in words ([1]; listed as CC^mut3): significant shift toward the apoptotic fraction
- increase in apoptosis ([1]; listed as CC^mut3): 6-8 fold
- proliferation/viability of K562 cells ([2]; 48 h following transfection, vs EGFP control, n=3): statistically significant decrease in the proliferation of K562 cells
- proliferation/viability of K562 cells ([2]; 72 h following transfection, vs mCherry control, n=1): potent inhibition of cell proliferation
- inhibition of cell proliferation of K562 cells ([2]; transfected, vs EGFP and WT control (FIG. 9)): inhibits proliferation; also recorded: significantly greater inhibition
- induction of apoptosis/necrosis (7-AAD and/or Annexin V positive cells) [3]: did not induce apoptosis
- hetero-dimerization with BCR-ABL [4]: favors hetero-dimerization; also recorded: strongly favors hetero-dimerization
- homo-oligomerization [5]: strongly disfavoring homo-oligomerization
- induction of apoptosis/necrosis [6]: not statistically different from the untreated control
- colony formation, in words [7]: again reduced
- colony formation, in words ([7]; listed as CC^mut3): reduced; also recorded: Inhibition in colony formation
- reduction of CFCs / colony forming ability compared to EV ([7]; CCmut3 vs EV): approximately 50%

Source: US10494417B2, “Peptide inhibitors of BCR-ABL oligomerization” (University of Utah Research Foundation, priority 2014, dated 2019)
